Measurements: PMC4103484, “Functional effects of polymorphisms on glucocorticoid receptor modulation of human anxiogenic substance-P gene promoter activity in primary amygdala neurones”

Tests used:
[1] = molecular target: T1, glucocorticoid receptor alpha (GRα) (human) (UniProt P04150); test: EMSA; settings: reference; EMSA: 20 fmol biotin probe with 2.0 uM GRα or 10 ug nuclear extract; buffer as Hay et al. 2005 with EDTA replaced by 50 uM ZnSO4; competitor 100x; 6% native …
T1 sequence: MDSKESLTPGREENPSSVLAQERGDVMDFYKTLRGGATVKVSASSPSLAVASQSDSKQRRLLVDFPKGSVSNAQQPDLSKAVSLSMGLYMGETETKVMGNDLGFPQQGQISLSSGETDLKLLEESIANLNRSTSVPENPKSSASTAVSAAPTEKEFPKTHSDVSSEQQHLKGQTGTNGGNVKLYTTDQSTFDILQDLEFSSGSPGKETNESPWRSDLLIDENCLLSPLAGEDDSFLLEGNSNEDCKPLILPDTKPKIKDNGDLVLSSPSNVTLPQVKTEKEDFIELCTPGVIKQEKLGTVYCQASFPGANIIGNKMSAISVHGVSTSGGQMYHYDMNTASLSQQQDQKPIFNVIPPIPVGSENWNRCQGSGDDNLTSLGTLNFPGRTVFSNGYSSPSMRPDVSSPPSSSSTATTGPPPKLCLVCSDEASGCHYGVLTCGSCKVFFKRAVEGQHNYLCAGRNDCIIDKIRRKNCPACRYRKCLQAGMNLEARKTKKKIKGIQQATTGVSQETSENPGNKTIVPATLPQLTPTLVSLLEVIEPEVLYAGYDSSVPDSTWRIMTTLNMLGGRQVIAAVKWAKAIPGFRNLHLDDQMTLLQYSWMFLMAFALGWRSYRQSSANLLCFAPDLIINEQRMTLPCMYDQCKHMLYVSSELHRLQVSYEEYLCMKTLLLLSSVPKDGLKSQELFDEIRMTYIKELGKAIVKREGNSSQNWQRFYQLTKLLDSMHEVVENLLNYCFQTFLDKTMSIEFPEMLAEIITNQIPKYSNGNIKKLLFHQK

[2] = molecular target: T2, glucocorticoid receptor alpha (GRα) (human, UniProt P04150 1-777); test: EMSA; EMSA: 20 fmol biotin probe with 2.0 uM GRα or 10 ug nuclear extract; buffer as Hay et al. 2005 with EDTA replaced by 50 uM ZnSO4; competitor 100x; 6% native gel, 0.5x TBE pH 8.3; binding salt, pH and temperature not stated; settings: protein: recombinant; chain copies: 2; blunt
[3] = molecular target: T2, glucocorticoid receptor alpha (GRα); test: competition; 100x unlabelled, vs 2GR probe; EMSA: 20 fmol biotin probe with 2.0 uM GRα or 10 ug nuclear extract; buffer as Hay et al. 2005 with EDTA replaced by 50 uM ZnSO4; competitor 100x; 6% native gel, 0.5x TBE pH 8.3; binding salt, pH and temperature not stated; settings: protein: recombinant; chain copies: 2; blunt

**Q.** How did the binding signal [1] turn out when “GAAGCAAAAAACGTCCTGTTCAACCCCTGCTCCTG (double strand) [SNP-G (SNPGR-G)]” was run?
**A.** Its binding signal is 100 % of SNP-G.

B1: GRE-cons (dsDNA)
DNA 1: TAAGTTTATGGTTACAAACTGTTCTTAAAACGAGG
DNA 2: CCTCGTTTTAAGAACAGTTTGTAACCATAAACTTA
**Q.** Does B1 bind [2]?
**A.** Result: binds

B2: RO (random oligonucleotide) (dsDNA)
DNA 1: CGAGCACCCTTCACCCTCCAGGCTTAACGG
DNA 2: CCGTTAAGCCTGGAGGGTGAAGGGTGCTCG
**Q.** Does B2 bind [3]?
**A.** Result: no binding
